Laboratory results reported in patent US12194057B2, “NXTAR-derived oligonucleotides and uses thereof” (Washington University, priority 2020, dated 2025).

Columns and labels:
AR [1] = assay: Immunoblotting of AR protein in prostate cancer cells; type: cell-based, human
Procedure: Cells were harvested, lysed by sonication in receptor lysis buffer (see e.g., Mahajan et al. (2010) PLoS One) and 20-50 μg of protein lysates were fractionated by SDS-PAGE, and transferred onto a PVDF membrane (Immobilon, Cat #IPVH00010). After blocking in 5% nonfat dry milk (RPI, Cat #M17200) (or 3% BSA, Goldbio, Cat #A-420-500), membranes were incubated with the following monoclonal antibodies: AR (SCBT, Cat #sc-7305; RRID:AB 626671), pY276-AR (29), ACK1 (SCBT, sc-28336; RRID:AB 626629), pACK1 (Upstate, 09-142; RRID:AB 612088), EZH2, and Actin. The signals were visualized by using the enhanced chemiluminescence (ECL; Pierce, 32106) system.

AR promoter = assay: ChIP-qPCR (EZH2, H3K27me3) at AR promoter; type: cell-based, human
Procedure: Chromatin immunoprecipitation (ChIP), quantitative RT-PCR, and ChIP-qPCR were performed as described earlier (see e.g., Mahajan et al. (2017) Cancer Cell; Mahajan et al. (2012) J Biol Chem; and Mahajan et al. (2012) Nat Struct Mol Bio). Briefly, cells were either transfected, infected or treated with various inhibitors (R)-9b; CPTH2 (Sigma, Cat #C9873)], fixed in formaldehyde, lysed and ChIP was performed with antibodies recognizing AR (SCBT, sc-7305; RRID:AB_626671), GCN5 (SCBT, SC-365321; RRID:AB_10846182), H3K14ac (CST, 7627S; RRID:AB_10839410), H3K27me3 (CST, 9733S; RRID:AB 2616029), NCOR1 (Bethyl Laboratories, Cat #A301-145A; RRID:AB_873085), EZH2 (CST, 5246S; RRID:AB_10694683), or IgG (Abcam, ab2410; RRID:AB_303052), immobilized on Protein A magnetic beads (Biorad, Cat #161-4013). The complexes were washed with ChIP buffers, eluted with elution buffer (Active Motif, Cat #53008), and subjected to reverse crosslinking, followed by RNase and proteinase K treatments. A part of soluble chromatin was processed separately at the same time and designated as input DNA. Treated ChIP DNA and input DNAs were purified using PCR-DNA purification columns (Qiagen, Cat #28106). The amount of immunoprecipitated DNA was determined by real-time PCR.

AR [2] = assay: qRT-PCR of AR and AR target gene expression in prostate cancer cells; type: cell-based, human
Procedure: (§1) NXTAR-N5 oligonucleotide was synthesized by IDT, and the oligonucleotide sequence is provided in TABLE 1 and FIG. 7C (* represents phosphorothioate bond modifications to avoid degradation by exonucleases). Equal numbers of VCaP and 22Rv1 cells were transfected with NXTAR-N5 or globin-derived oligonucleotide using X-tremeGENE360 (Sigma-Aldrich, Cat #08724121001), and the number of live cells was counted 96 h post-transfection using trypan blue exclusion method (Sigma, Cat #T8154). RNA was prepared from these cells, and qRT-PCR [SYBR PremixEx Taq II (Tli RNase H Plus)ROX, Clontech Takara, Cat #RR82LR] for AR and AR-V7 was performed as described earlier (see e.g., Mahajan et al. (2017) Cancer Cell).
(§2) Cells were transfected, infected or treated [(R)-9b; EPZ6438, TargetMol, Cat #T1788] accordingly. RNA was used for cDNA preparation using High-Capacity cDNA Reverse Transcription Kit (Thermo Scientific Cat #4368814). Resulting cDNA was then analyzed by qPCR using an Applied Biosystems 7900 Real-Time PCR System (Thermo Scientific) and SYBR Green PCR Master Mix [SYBR PremixEx Taq II (Tli RNase H Plus) ROX, Clontech Takara, Cat #RR82LR] according to the manufacturers' instructions. Dissociation curves were generated for each plate to verify the integrity of the primers. The relative expression of RNAs was calculated using the comparative Ct or standard curve method. 18S rRNA or actin were used as internal controls.

VCaP cells = assay: Xenograft of VCaP cells infected with pBABE vector or NXTAR in SCID mice; type: in vivo
Procedure: All animal experiments were performed using the standards for humane care in accordance with the National Institutes of Health Guide for the Care and Use of Laboratory Animals. Mice breeding and colony maintenance were performed according to IACUC protocols approved by Washington University in St. Louis. 1.5×10^6 VCaP cells were suspended in 200 μL of PBS with 50% Matrigel (Corning, Cat #354428) and implanted subcutaneously into the dorsal flank of castrated 6-week-old male SCID mice (Charles River, Strain code: 236). Once the tumors reached approximately 100 mm^3, mice were randomized and injected subcutaneously with (R)-9b mesylate salt suspended in 6% Captisol (Cydex Pharmaceuticals). Tumor volumes were measured twice weekly using calipers. At the end of the study, all mice were humanely euthanized and tumors were extracted and weighed. To assess the role of NXTAR in tumor growth, 1.5×10^6 VCaP cells that were either infected with pBABE vector or NXTAR and selected with puromycin (Gibco, Cat #A1113803), implanted and growth of tumors was recorded. The personnel taking tumor volume measurement were blinded for the treatment groups.
To examine the direct effect of NXTAR restoration on prostate tumor growth, equal numbers of VCaP infected with either pBABE vector or NXTAR constructs were injected in the SCID mice. Palpable tumors were formed around week 5 that were measured twice a week thereafter.

AR-V7 = assay: qRT-PCR of AR-V7 expression in prostate cancer cells; type: cell-based, human; conditions: 22Rv1 cells, reintroduction of NXTAR
Procedure: as §1
as §2, with “18S rRNA or actin were used as internal controls.” left out

[3] = 22Rv1 and VCaP cells infected with retroviral NXTAR construct

B1: NXTAR: long non-coding RNA, 1476-nt transcript (SEQ ID NO: 58), expressed from retroviral or plasmid constructs (nucleic acid, listed as Homo sapiens)
chain: GGAAAAGGAAGGCTGCACAGAAGAACTGGCATTTGTGTTCTGCCTACAAAGCTGAAAAGGATTTCACCCAAATCAGGGAAGATCAGCCTTATGAGGTGGATATTATTGCCACAATAATTTTCCAGATGAAAAATGGAGGCCCAGAGATGTTAAGGAATTTGCCCAAGATCATGAAAAGACACTCTCCCCTATTGAGATGTCATGCAAGGATCAGTGCTGTGTGAAAATCCACATGAAGCAGGAAATGCAGGTGGTGGTGTCCAATCTGATTTCAAGATCTGAGAAGCTGTGCACTGCCTGAAAGGTATCTATTTAAGGTGTCACCAGACTCCTGCTCCACTCCTGCCCAAGGCCCAGCCCATCCAAGAGCAAAAGGCAAGTGGTGTTACAACCTTGGGATTTCCTGTATCTGCCCTCTTGCGGATAGCAGGACAGAGTCACAGCTGCATTAAATTCGCTTAAGACTTATTGAGACACTTCAACACTTCAACAACGACCTGTGAGATTAAGATTATTATTTTAAATTTACAGAAGGGGAAACTAAGAATTATAGACATGAAGTGACTCACCTATGACCACCTGGTGATAGAACCAGGACTAGAGCTCAGGTATGAAGATTTCTGGGGGAGTCCCTGAAAAAAAGGCTCCATATGGAATTACAATGTGGAAAAGGCCAAGGCCTCACCAACCCTTTTCTCTTCAACACCTGGATCCCTAAGTCCTTATTCGTAACCTCCTCTTTGGACAAGGTTTTGGTAGACAAAGCCAGAGCCTCTTGCACTGAGAAAGACAAATTCTCCTCTTGCAGTGAACCACAGGTAAATGCTCCAATAGAGAGTCCAAGCCAAACCTCCGGGTGTTATTCATGACCCAGGCAAGTCTGCTTTCTCATTCCCCCTATCTCTAGACCGTTTTCCATTTGGGCTTCCTTTTCTTCTTTTATCCTCAAAGAAACATGTTTCCTTCTAGTAGGTTTGGCTGCCACCACTAGGGTCCTGGCTACAACTGGCCCTCAGGTAACTCTCTCACCTCTGAGTTGGATAGTATCCTCTCTCGTCCCCATACACAAGTGTTTCTCTTCCCAGACACCTTCCTTACACAATTTCCCATTTCTTTCTCATCTCACCCTTGCTTTAATCAACATAGTTCTTTCCCCTGAGATTACTCTTCAGCCTTTCTTGTTGAAGCACTGCCCAGTGGTTCTCTTGGGATTTCCATTTCTCTCCCCTCAGCTCTCTTGGTACCAAATTCTGTAAGCTTCTCTGGTTTTTGGTTTCTCTTCCTTCTTTTCCTTCCAGGCAACATTTACTCAATCTAGGCTTGGATGATCAGGTACTTCTGCCAGCCTGCCCACTAGGGAACTCTGGGCTAGGAATATGTCTCAATGGCACCATTATATTTGGAAGGACGCTTCTGTATTTACACTGAACACACTAAAATACTAAACTTGAAGCCAAAATCCCCTCTCTGGCTCCA
With B1 the AR protein (AR [1]; 22Rv1 cells, NXTAR construct 0.25-2 μg, 48 hrs) was “dose-dependent downregulation of AR”, the AR protein (AR [1]; LNCaP and 22Rv1 cells, NXTAR plasmid 24, 48 and 72 hrs) was “decreased upon NXTAR expression in a time-dependent manner” and the “AR expression (protein)” value (AR [1]; VCaP and 22Rv1 cells, NXTAR expression) was “loss of AR expression”. The “EZH2 binding at the AR promoter” value (AR promoter; LNCaP cells overexpressing NXTAR) was “significant binding”, the “deposition of H3K27me3 marks in the AR promoter” value (AR promoter; LNCaP, 22Rv1 and VCaP cells, NXTAR restoration) was “significant increase in deposition of H3K27me3 marks” and the “AR mRNA level” value (AR [2]; [3]) was “significant decrease in AR mRNA level”. For the same molecule, the KLK3 expression (AR [2]; [3]) was “significant loss of expression”, the TMPRSS2 expression (AR [2]; [3]) was “significant loss of expression” and the “AR and KLK3/PSA levels post-DHT-treatment” value (AR [2]; LNCaP and 22Rv1 cells, DHT 10 nM overnight, NXTAR restoration) was “significantly compromised upon NXTAR restoration”. The AR levels (AR [2]; VCaP cells, NXTAR overexpression (rescue experiment)) was “significant loss of AR levels”, the tumor growth (VCaP cells; NXTAR overexpressing vs vector-expressing VCaP cells) was “significant reduction in tumor growth” and the “AR protein levels in tumors” value (VCaP cells; immunoblotting of tumor lysates) was “significant reduction in AR protein levels”. For the same molecule, the tumor burden (VCaP cells; tumor weights and volume) was “significantly reduced” and the AR-V7 expression (AR-V7) was “significantly compromised”.
